# Data from US20260325634 (published 2026).
# T1: CD123 (IL-3R alpha) (human, UniProt P26951)
# T1 chain: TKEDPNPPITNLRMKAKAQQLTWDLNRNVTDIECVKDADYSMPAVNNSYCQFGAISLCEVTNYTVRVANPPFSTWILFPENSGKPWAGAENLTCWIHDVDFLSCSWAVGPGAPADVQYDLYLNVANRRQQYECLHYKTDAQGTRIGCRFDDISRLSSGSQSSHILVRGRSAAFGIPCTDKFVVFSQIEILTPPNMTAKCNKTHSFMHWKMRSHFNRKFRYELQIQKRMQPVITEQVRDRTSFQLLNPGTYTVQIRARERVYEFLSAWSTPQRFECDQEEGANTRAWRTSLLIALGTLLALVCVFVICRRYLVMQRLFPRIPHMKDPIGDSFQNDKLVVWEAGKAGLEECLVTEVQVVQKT
# Target: T1, CD123 (IL-3R alpha)
# Test: BLI
binder,measurement,value
"AB1 (18B4D5) (antibody, V domains shown) VH: EVKLQESGPGLVKPSQSLSLTCTVTGYSITSDYTWNWIRQFPGNKLEWMGYISFSGSTSYNPSLKSRLSITRDTSKNQFFLQLNSVTTEDTATYYCARGLDYWGQGTTLTVSS VL: DIVMTQSPAIMSASLGERVTMTCTASSSISSSYLYWYQQKPGSSPKLWIYSTSNLASGVPARFSGSGSGTSYSLTISSMEAEDAATYYCHQLHRSPWTFGGGTKLEIKR",Kd,< 1 pM
